# From publication doi:10.1101/2023.08.10.552813 (2023)
# Where two headings read alike, the source gives them in different places.
# B1: mouse Interleukin 33 (residues 112-270) (ligand)
# chain: SIQGTSLLTQSPASLSTYNDQSVSFVLENGCYVINVDDSGKDQEQDQVLLRYYESPCPASQSGDGVDGKKVMVNMSPIKDTDIWLHANDKDYSVELQRGDVSPPEQAFFVLHKKSSDFVSFECKNLPGTYIGVKDNQLALVEEKDESCNNIMFKLSKI
# Assays:
# Assay in all cases: SPR
# [1] = biological target: T1, HpARI point mutant of residue Y112 (Heligmosomoides polygyrus bakeri, biotinylated with EZ-Link Sulfo-NHS-Biotin where immobilised for SPR)
# [2] = biological target: T2, HpARI point mutant of residue E70 (Heligmosomoides polygyrus bakeri, biotinylated with EZ-Link Sulfo-NHS-Biotin where immobilised for SPR)
# [3] = biological target: T3, HpARI point mutant of residue W107 (Heligmosomoides polygyrus bakeri, biotinylated with EZ-Link Sulfo-NHS-Biotin where immobilised for SPR)
# [4] = biological target: T4, HpARI-N152 (HpARI with an N-linked glycan inserted at residue 152, interface A) (Heligmosomoides polygyrus bakeri, N-linked glycan at residue 152)
# [5] = biological target: T4, HpARI-N152 (HpARI with an N-linked …); remark: listed apart in the source
# [6] = biological target: T1, HpARI point mutant of residue Y112; remark: listed apart in the source
# [7] = biological target: T2, HpARI point mutant of residue E70; remark: listed apart in the source
# [8] = biological target: T3, HpARI point mutant of residue W107; remark: listed apart in the source
# [9] = biological target: B1
# [10] = biological target: B1
binder,measurement,setting,value
B1,Kd,[1],0.528 nM
same,koff,[1],9.33e-05 s⁻¹
same,Kd,[2],0.31 nM
same,koff,[2],9.89e-05 s⁻¹
same,Kd,[3],1.18 nM
same,koff,[3],0.000162 s⁻¹
same,Kd,[4],0.0474 nM
same,koff,[5],6.12e-05 s⁻¹
same,Kd,[6],~0.5 nM
same,Kd,[7],~0.3 nM
same,Kd,[8],~1.2 nM
"HpARI-LD (full-length HpARI with residues 180-188 of the CCP3 loop deleted) (natural protein, biotinylated with EZ-Link Sulfo-NHS-Biotin where immobilised for SPR) AGQRCRFTDVERDKGYTGMLLKGRLRKTAGNGRTVELICGRGNHNYTCESGVLKESSPRQARCGCKGILEMLFDMPKEERPSPMYDSVTYDPTPNTPTTVGKDGIWNGVDYRNGSTVKPYCDTGPVINGSSKAVCVSGKWVPTLGVCPKMCSIGSLKENGKFVDVTATTKGDELNPPPRKVDKDKVQHGVKVVALCKAEDSTTAAEGVQEFECDNGKWKPEPVPCP",Kd,[9],4.53 nM
same,koff,[10],0.00296 s⁻¹
"HpARI_CCP1/2 (HpARI with CCP3 truncated) (domain or fragment, biotinylated with EZ-Link Sulfo-NHS-Biotin where immobilised for SPR) AGQRCRFTDVERDKGYTGMLLKGRLRKTAGNGRTVELICGRGNHNYTCESGVLKESSPRQARCGCKGILEMLFDMPKEERPSPMYDSVTYDPTPNTPTTVGKDGIWNGVDYRNGSTVKPYCDTGPVINGSSKAVCVSGKWVPTLGVCPK",koff,[10],0.00201 s⁻¹
"Heligmosomoides polygyrus Alarmin Release Inhibitor (HpARI), full-length (natural protein, biotinylated with EZ-Link Sulfo-NHS-Biotin where immobilised for SPR) AGQRCRFTDVERDKGYTGMLLKGRLRKTAGNGRTVELICGRGNHNYTCESGVLKESSPRQARCGCKGILEMLFDMPKEERPSPMYDSVTYDPTPNTPTTVGKDGIWNGVDYRNGSTVKPYCDTGPVINGSSKAVCVSGKWVPTLGVCPKMCSIGSLKENGKFVDVTATTKGDELNPPPREQTLIPIVRKVDKDKVQHGVKVVALCKAEDSTTAAEGVQEFECDNGKWKPEPVPCP",koff,[10],4.51e-05 s⁻¹
